Literature values as cited in PMC11346460.

Biological target: RIG-I (Homo sapiens) (UniProt O95786)
Chain of UniProt O95786 (O95786 whole entry): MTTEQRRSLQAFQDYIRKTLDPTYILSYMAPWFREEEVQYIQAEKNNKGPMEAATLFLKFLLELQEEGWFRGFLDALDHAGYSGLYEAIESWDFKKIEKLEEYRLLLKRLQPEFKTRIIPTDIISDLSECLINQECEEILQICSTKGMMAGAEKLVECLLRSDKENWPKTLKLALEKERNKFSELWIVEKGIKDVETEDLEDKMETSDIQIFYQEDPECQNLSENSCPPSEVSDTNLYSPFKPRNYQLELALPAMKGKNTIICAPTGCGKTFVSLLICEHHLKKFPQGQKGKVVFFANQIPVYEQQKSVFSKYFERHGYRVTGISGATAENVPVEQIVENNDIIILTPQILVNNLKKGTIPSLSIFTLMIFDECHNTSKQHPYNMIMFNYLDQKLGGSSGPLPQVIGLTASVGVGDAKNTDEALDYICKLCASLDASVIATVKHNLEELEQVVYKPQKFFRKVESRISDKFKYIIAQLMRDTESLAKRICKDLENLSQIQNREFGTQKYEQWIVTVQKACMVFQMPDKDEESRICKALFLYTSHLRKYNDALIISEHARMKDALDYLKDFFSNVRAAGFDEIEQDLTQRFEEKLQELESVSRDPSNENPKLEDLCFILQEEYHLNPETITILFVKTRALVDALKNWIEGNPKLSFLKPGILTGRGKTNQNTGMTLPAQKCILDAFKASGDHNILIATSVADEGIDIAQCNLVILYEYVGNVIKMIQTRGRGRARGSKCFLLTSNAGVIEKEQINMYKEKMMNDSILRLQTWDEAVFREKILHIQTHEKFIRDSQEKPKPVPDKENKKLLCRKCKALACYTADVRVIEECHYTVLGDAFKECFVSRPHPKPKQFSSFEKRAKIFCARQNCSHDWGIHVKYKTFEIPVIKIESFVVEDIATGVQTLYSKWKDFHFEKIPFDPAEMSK

**Q.** Which Kd does the source give for RIPLET (from UniProt Q8IUD6) here?
**A.** Its Kd is 6.6 nM.
